The chains are these.
B1: B(1-29)-B27E-B29A-TGLGKGQ-A(1-21)-A18Q Human insulin (PAK1845) (ligand)
chain: FVNQHLCGSHLVEALYLVCGERGFFYEPATGLGKGQGIVEQCCTSICSLYQLEQYCN
modifications: disulfide 19-56, 42-47, 7-43
B2: single-chain insulin PAK 1873, connecting peptide KGLSSGQ [B29A_A18Q] (ligand)
chain: FVNQHLCGSHLVEALYLVCGERGFFYTPAKGLSSGQGIVEQCCTSICSLYQLEQYCN
modifications: disulfide 19-56, 42-47, 7-43
B3: B(1-29)-B29A-TGLGKGQ-A(1-21)-A18Q Human insulin (PAK1837) (ligand)
chain: FVNQHLCGSHLVEALYLVCGERGFFYTPATGLGKGQGIVEQCCTSICSLYQLEQYCN
modifications: disulfide 19-56, 42-47, 7-43
B4: single-chain insulin PAK 1735, connecting peptide VGRSSGK [A21G] (ligand)
chain: FVNQHLCGSHLVEALYLVCGERGFFYTPKVGRSSGKGIVEQCCTSICSLYQLENYCG
modifications: disulfide 19-56, 42-47, 7-43
B5: single-chain insulin PAK 1861, connecting peptide VGLGKGPGAGK [A18Q_A21G] (ligand)
chain: FVNQHLCGSHLVEALYLVCGERGFFYTPKVGLGKGPGAGKGIVEQCCTSICSLYQLEQYCG

Bridges are numbered along the chain shown (N, C = ends). Where no end group is shown, it is not given here.

The first test deals with human IGF-1 receptor (human) (UniProt P08069). Put plainly: competition with 125I-IGF-1 (SPA).
“single-chain insulin B(1-29)-TRLSQGR-A(1-21) (from UniProt P01308 25-53; P01308 90-110) (ligand)” showed a Human IGF-1 receptor binding of 0.05%.
With “single-chain insulin B(1-29)-TRSSNGR-A(1-21) (from UniProt P01308 25-53; P01308 90-110) (ligand)”, the Human IGF-1 receptor binding came to 0.1%.
In turn, “single-chain insulin PAK 1708, connecting peptide VGSRSGK (from UniProt P01308 25-53; P01308 90-110) (ligand)” yielded a Human IGF-1 receptor binding relative to human insulin of 0.2%.
As to “single-chain insulin PAK 1709, connecting peptide VGRSSGK (SEQ ID NO:105) (from UniProt P01308 25-53; P01308 90-110) (ligand)”, the Human IGF-1 receptor binding relative to human insulin stood at 0.5%.
“single-chain insulin PAK 1766, connecting peptide VGSSSGK (from UniProt P01308 25-53; P01308 90-110) (ligand)”: the Human IGF-1 receptor binding relative to human insulin turned out to be 0.05%.
With “single-chain insulin PAK 1638077, connecting peptide VGSSRGK (from UniProt P01308 25-53; P01308 90-110) (ligand)”, the Human IGF-1 receptor binding relative to human insulin turned out to be 0.1%.
On the same count and under the same terms, the figure for “single-chain insulin PAK 1687033, connecting peptide VGSYSGK (from UniProt P01308 25-53; P01308 90-110) (ligand)” is 0.2%; for “single-chain insulin PAK 1687046, connecting peptide VGSMSGK (from UniProt P01308 25-53; P01308 90-110) (ligand)” it is 0.1%.
In the case of “single-chain insulin PAK 1688007, connecting peptide VGYSSGK (from UniProt P01308 25-53; P01308 90-110) (ligand)”, the Human IGF-1 receptor binding relative to human insulin is 0.2%.
Same read-out and setting: the figure for “single-chain insulin PAK 1688011, connecting peptide VGLSSGK (from UniProt P01308 25-53; P01308 90-110) (ligand)” is 0.1%; for “single-chain insulin PAK 1688028, connecting peptide VGMSSGK (SEQ ID NO:106) (from UniProt P01308 25-53; P01308 90-110) (ligand)” it is 0.2%.
For “single-chain insulin with connecting peptide RGSSGK (SEQ ID NO:114), no PAK number printed (from UniProt P01308 25-53; P01308 90-110) (ligand)”, the Human IGF-1 receptor binding relative to human insulin is 0.5%.
“single-chain insulin with connecting peptide VGHSSGK (SEQ ID NO:108), no PAK number printed (from UniProt P01308 25-53; P01308 90-110) (ligand)” displayed a Human IGF-1 receptor binding relative to human insulin of 0.15%.

The target of a further test is T1, purified recombinant human insulin receptor-exon 11 (human, UniProt P06213-2 28-1370, limits assumed).
T1 construct: also called IR
Put plainly: competition with 125I-insulin (SPA). As for the experimental part: A total of 100 μl was then added and a dilution series is made from appropriate samples. To the dilution series was then added 100 μl of reagent mix and the samples were incubated for 16 hours while gently shaken. The phases were the then separated by centrifugation for 1 min and the plates counted in a Topcounter. The binding data were fitted using the nonlinear regression algorithm in the GraphPad Prism 2.01 (GraphPad Software, San Diego, Calif.).
With B1, the “IR, binding relative to human insulin” value was 20%.
As to B2, the “IR, binding relative to human insulin” value is 60%.
On to B3, for which the “IR, binding relative to human insulin” value came out at 71%.
B4: the “IR, binding relative to human insulin” value stood at 143%.
B5: the “IR, binding relative to human insulin” value came to 36%.

In a further test the target is purified recombinant human insulin receptor-exon 11 (human) (UniProt P06213). The experiment in a line: competition with 125I-insulin (SPA).
For “single-chain insulin PAK 1876, connecting peptide VGLSSGQ [B27K_B29A_A18Q] (from UniProt P01308 25-53; P01308 90-110) (ligand)”, the IR, binding relative to human insulin amounted to 38%.
In the case of “single-chain insulin PAK 1877, connecting peptide TGLGSGK [B28D_A18Q] (from UniProt P01308 25-53; P01308 90-110) (ligand)”, the IR, binding relative to human insulin came out at 140%.
As for “single-chain insulin PAK 1878, connecting peptide VGLSSGQ [B3K_A18K_A21G] (from UniProt P01308 25-53; P01308 90-110) (ligand)”, the IR, binding relative to human insulin is 172%.
As for “single-chain insulin PAK 1879, connecting peptide VGLSSGQ [B29A_A18Q] (from UniProt P01308 25-53; P01308 90-110) (ligand)”, the IR, binding relative to human insulin is 92%.
For the molecule “single-chain insulin PAK 1880, connecting peptide VGLSSGQ [B1G_B3Q_A18Q_A21G] (from UniProt P01308 25-53; P01308 90-110) (ligand)”, the IR, binding relative to human insulin was found to be 54%.
On the same count and under the same terms, in the case of “single-chain insulin PAK 1884, connecting peptide VGLSSGQ [B29A_A8K_A18Q] (from UniProt P01308 25-53; P01308 90-110) (ligand)” it was 89%.
Still for that read-out and setting: in the case of “single-chain insulin PAK 1891, connecting peptide TGLGSGQ [B10A_A18Q] (from UniProt P01308 25-53; P01308 90-110) (ligand)” it was 34%; in that of “single-chain insulin PAK 1892, connecting peptide TGLGSGQ [desB1_B3Q_B10A_A18Q] (from UniProt P01308 26-53; P01308 90-110) (ligand)”, 38%; in that of “single-chain insulin PAK 1893, connecting peptide TGLGSGQ [B10Q_A18Q] (from UniProt P01308 25-53; P01308 90-110) (ligand)”, 51%.
For the molecule “single-chain insulin PAK 1894, connecting peptide TGLGSGQ [desB1_B3Q_B10Q_A18Q] (from UniProt P01308 26-53; P01308 90-110) (ligand)”, the IR, binding relative to human insulin was 38%.
As for “single-chain insulin PAK 1769013, connecting peptide QVGSSSGK [A18Q_A21G] (from UniProt P01308 25-53; P01308 90-110) (ligand)”, the IR, binding relative to human insulin worked out at 33%.
As for “single-chain insulin PAK 1769015, connecting peptide EVGSSSGK [A18Q_A21G] (from UniProt P01308 25-53; P01308 90-110) (ligand)”, the IR, binding relative to human insulin came to 42%.
As to “single-chain insulin PAK 1769020, connecting peptide SVGSSSGK [A18Q_A21G] (from UniProt P01308 25-53; P01308 90-110) (ligand)”, the IR, binding relative to human insulin is 51%.
With “single-chain insulin PAK 1769027, connecting peptide LVGSSSGK [A18Q_A21G] (from UniProt P01308 25-53; P01308 90-110) (ligand)”, the IR, binding relative to human insulin is 68%.
Turning to “single-chain insulin PAK 1769033, connecting peptide PVGSSSGK [A18Q_A21G] (from UniProt P01308 25-53; P01308 90-110) (ligand)”, the IR, binding relative to human insulin came out at 37%.
In the case of “single-chain insulin PAK 1769040, connecting peptide VVGSSSGK [A18Q_A21G] (from UniProt P01308 25-53; P01308 90-110) (ligand)”, the IR, binding relative to human insulin was 29%.
Take “single-chain insulin PAK 1769053, connecting peptide GVGSSSGK [A18Q_A21G] (from UniProt P01308 25-53; P01308 90-110) (ligand)”: the IR, binding relative to human insulin was found to be 37%.
In the case of “single-chain insulin PAK 1769062, connecting peptide PVGSSSGK [A18Q_A21G] (from UniProt P01308 25-53; P01308 90-110) (ligand)”, the IR, binding relative to human insulin came to 56%.
In the case of “single-chain insulin with connecting peptide GGSSGK (SEQ ID NO:116), no PAK number printed (from UniProt P01308 25-53; P01308 90-110) (ligand)”, the IR, binding relative to human insulin turned out to be 23%.
Still for that read-out and setting: the figure for “single-chain insulin with connecting peptide LGSSGK (SEQ ID NO:113), no PAK number printed (from UniProt P01308 25-53; P01308 90-110) (ligand)” is 49%; for “single-chain insulin with connecting peptide QGSSGK (SEQ ID NO:110), no PAK number printed (from UniProt P01308 25-53; P01308 90-110) (ligand)” it is 36%.
On to “single-chain insulin with connecting peptide QGSSGK (SEQ ID NO:115), no PAK number printed (from UniProt P01308 25-53; P01308 90-110) (ligand)”, for which the IR, binding relative to human insulin is 34%.
On the same count and under the same terms, the figure for “single-chain insulin with connecting peptide RGSSGK (SEQ ID NO:114), no PAK number printed (from UniProt P01308 25-53; P01308 90-110) (ligand)” is 54%.

For the origin of these results see patent US20090170750A1 (Novo Nordisk, published 2009).
